Reference: patent publication US20220153819A1 (Regeneron, published 2022)
Values joined by “and” are separate entries in the source; they are usually repeats but may differ in a detail not shown here. Equal entries are not always repeated. Where two headings read alike, the source gives them in different places.

Experiments:
[1] = target: T1, human complement component 1q (C1q) (human, UniProt P02745 23-245; P02746 28-253; P02747 29-245)
[2] = target: T2, biotinylated human C1q (human, UniProt P02745 23-245; P02746 28-253; P02747 29-245)
T2 sequence (P02745 23-245, chain 1 of 3): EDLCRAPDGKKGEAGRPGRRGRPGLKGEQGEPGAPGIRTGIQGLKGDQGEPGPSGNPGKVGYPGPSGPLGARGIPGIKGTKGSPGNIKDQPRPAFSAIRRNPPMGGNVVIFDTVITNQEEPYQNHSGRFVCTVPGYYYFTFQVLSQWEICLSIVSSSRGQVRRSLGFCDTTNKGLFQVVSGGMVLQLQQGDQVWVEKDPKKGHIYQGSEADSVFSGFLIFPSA
T2 sequence (P02746 28-253, chain 2 of 3): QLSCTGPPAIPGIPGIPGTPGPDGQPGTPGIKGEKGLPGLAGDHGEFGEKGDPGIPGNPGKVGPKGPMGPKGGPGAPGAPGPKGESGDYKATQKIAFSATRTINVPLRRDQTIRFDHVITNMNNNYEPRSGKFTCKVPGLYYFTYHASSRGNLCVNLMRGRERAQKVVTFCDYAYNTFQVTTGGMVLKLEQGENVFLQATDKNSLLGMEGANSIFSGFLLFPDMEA
T2 sequence (P02747 29-245, chain 3 of 3): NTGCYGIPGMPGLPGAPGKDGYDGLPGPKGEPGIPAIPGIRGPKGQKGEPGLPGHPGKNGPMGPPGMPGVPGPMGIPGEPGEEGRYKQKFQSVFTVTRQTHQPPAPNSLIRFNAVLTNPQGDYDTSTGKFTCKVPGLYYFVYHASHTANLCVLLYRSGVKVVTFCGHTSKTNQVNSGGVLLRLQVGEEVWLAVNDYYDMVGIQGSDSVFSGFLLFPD

[3] = target: T3, hGITR.mmh (human)
T3 chain: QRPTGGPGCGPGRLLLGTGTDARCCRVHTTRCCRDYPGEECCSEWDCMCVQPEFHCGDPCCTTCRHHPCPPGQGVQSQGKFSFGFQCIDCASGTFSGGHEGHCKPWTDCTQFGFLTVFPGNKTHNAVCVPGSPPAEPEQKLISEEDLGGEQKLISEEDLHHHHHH

[4] = target: T2, biotinylated human C1q; remark: listed apart in the source
[5] = target: T4, human GITR on Jurkat/hGITR/hCD20 cells (human, UniProt Q9Y5U5 26-241)
T4 sequence (looked up): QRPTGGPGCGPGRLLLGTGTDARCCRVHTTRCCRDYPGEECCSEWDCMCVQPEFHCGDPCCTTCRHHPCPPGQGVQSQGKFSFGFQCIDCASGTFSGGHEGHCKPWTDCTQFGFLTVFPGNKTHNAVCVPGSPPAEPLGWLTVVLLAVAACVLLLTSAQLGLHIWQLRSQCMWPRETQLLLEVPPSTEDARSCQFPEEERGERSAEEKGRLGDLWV

[6] = target: T1, human complement component 1q (C1q); remark: listed apart in the source
[7] = target: T3, hGITR.mmh
[8] = target: T3, hGITR.mmh
[9] = target: T5, IsdB.6×(His) (Staphylococcus aureus, UniProt A6QG30 41-613); assay: SPR (Biacore 8k), 25C; IsdB-6xHis captured via anti-His, bsAb injected
[10] = target: T2, biotinylated human C1q; assay: SPR (Biacore), 37C; biotinylated hC1q captured at low density, bsAb injected
[11] = target: T6, hemagglutinin (HA) on A/Puerto Rico/08/1934 (H1N1)-infected MDCK cells (Influenza A virus A/Puerto Rico/08/1934 …, UniProt P03452 18-565); assay: cell-based or functional assay
[12] = target: T2, biotinylated human C1q
[13] = target: T5, IsdB.6×(His); assay: SPR (Biacore T200), 25C; bsAb captured, IsdB-6xHis injected
[14] = target: T1, human complement component 1q (C1q); assay: cell-based or functional assay
[15] = target: T2, biotinylated human C1q; remark: listed apart in the source
[16] = target: T5, IsdB.6×(His); assay: SPR (Biacore T200), 37C; bsAb captured, IsdB-6xHis injected
[17] = target: T1, human complement component 1q (C1q); remark: listed apart in the source
[18] = target: T5, IsdB.6×(His); assay: SPR (Biacore), 37C; IsdB.6xHis captured, bsAb injected
[19] = target: T5, IsdB.6×(His); assay: SPR (Biacore T200), 37C; antibody captured, IsdB.6xHis injected
[20] = target: T6, hemagglutinin (HA) on A/Puerto …; assay: cell ELISA on fixed A/Puerto Rico/08/1934 (H1N1)-infected MDCK cells
[21] = target: T1, human complement component 1q (C1q); assay: SPR (Biacore T200), 37C; bsAb captured via anti-human F(ab')2, hC1q injected
[22] = target: T1, human complement component 1q (C1q); assay: SPR (Biacore T200), 25C; bsAb captured via anti-human F(ab')2, hC1q injected
[23] = target: T1, human complement component 1q (C1q); remark: listed apart in the source
[24] = target: T5, IsdB.6×(His); assay: SPR (Biacore 8k), 37C; IsdB-6xHis captured via anti-His, bsAb injected
[25] = target: mouse C1q (mouse, UniProt P98086 23-245; P14106 26-253; Q02105 30-246); assay: not described
Chain of mouse C1q (P98086 23-245 limits assumed, chain 1 of 3): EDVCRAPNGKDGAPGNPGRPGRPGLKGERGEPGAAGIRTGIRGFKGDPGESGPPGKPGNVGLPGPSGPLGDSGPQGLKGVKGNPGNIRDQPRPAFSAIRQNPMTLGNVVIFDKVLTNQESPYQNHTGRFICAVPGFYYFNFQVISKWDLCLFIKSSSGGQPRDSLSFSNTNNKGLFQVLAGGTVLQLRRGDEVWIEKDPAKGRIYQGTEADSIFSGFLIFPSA
Chain of mouse C1q (P14106 26-253 limits assumed, chain 2 of 3): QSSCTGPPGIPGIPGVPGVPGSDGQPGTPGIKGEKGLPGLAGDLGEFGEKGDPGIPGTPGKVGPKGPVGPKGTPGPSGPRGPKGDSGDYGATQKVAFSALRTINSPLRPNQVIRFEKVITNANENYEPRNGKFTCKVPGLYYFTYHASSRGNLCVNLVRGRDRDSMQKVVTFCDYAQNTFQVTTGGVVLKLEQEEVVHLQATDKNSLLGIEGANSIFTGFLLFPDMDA
Chain of mouse C1q (Q02105 30-246 limits assumed, chain 3 of 3): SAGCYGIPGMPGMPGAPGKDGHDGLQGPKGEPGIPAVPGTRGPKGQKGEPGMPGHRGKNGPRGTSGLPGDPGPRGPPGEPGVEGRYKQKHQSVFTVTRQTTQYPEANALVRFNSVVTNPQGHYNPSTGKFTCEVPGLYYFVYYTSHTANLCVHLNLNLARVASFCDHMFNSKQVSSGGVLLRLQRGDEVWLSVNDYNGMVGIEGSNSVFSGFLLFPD

[26] = target: T7, IsdB on the surface of S. aureus Newman Δspa (Staphylococcus aureus, UniProt A6QG30 41-613); assay: ELISA, plate coated with S. aureus Newman Δspa, luminescence
T7 construct: whole, on cells; also called iron-regulated surface determinant protein B

T1 sequence (P02745 23-245, chain 1 of 3): as the sequence (P02745 23-245, chain 1 of 3) above
T1 sequence (P02746 28-253, chain 2 of 3): as the sequence (P02746 28-253, chain 2 of 3) above
T1 sequence (P02747 29-245, chain 3 of 3): as the sequence (P02747 29-245, chain 3 of 3) above

B1: REGN6546, anti-GITR x anti-C1q bispecific antibody (bispecific antibody, V domains shown)
VH 1: QVQLQESGPGLVKPSETLSLTCIVSGGSISGYFWNWIRQPPGKGLEWIGYIYYSGTTIYNPSLKSRFTISLDTSKNQFSLKLTSVTAADTAVYYCARESYNPSPRYFDHWGQGTLVTVSS
VH 2: EVQLVQSGAEVKKPGESLKIFCKGSGYSFINDWIGWVRQMPGKGLEWMGLIFPGDSDTRYSPVFQGHVTISADQSIDTAYLQWNSLKASDTAIYYCAVLRYWHFAIWGRGTLVTVSS
VL: not shown
[1]
  Kd: 4.63 nM
  koff: 0.0227 s⁻¹
  kon: 4.9e+06 M⁻¹ s⁻¹
[2]
  Kd: 8540 nM
  koff: 0.687 s⁻¹
  kon: 80500 M⁻¹ s⁻¹
[3]
  Kd: 7.52 nM and 20.9 nM
  kon: 453000 M⁻¹ s⁻¹ and 543000 M⁻¹ s⁻¹
[4]
  Kd: 1880 nM
  koff: 0.413 s⁻¹
  kon: 220000 M⁻¹ s⁻¹
[5]
  EC50: 23.5 nM
[6]
  Kd: 0.753 nM
  koff: 0.00409 s⁻¹
  kon: 5.43e+06 M⁻¹ s⁻¹
[7]
  Kd: 4.61 nM
  koff: 0.0031 s⁻¹
  kon: 673000 M⁻¹ s⁻¹
[8]
  Kd: 16 nM
  koff: 0.019 s⁻¹
  kon: 1.19e+06 M⁻¹ s⁻¹

B2: REGN5066, anti-IsdB x anti-C1q bispecific antibody (bispecific antibody, V domains shown)
VH 1: EVQLVESGGGLVQPGRSLRLSCTTSGFTFDDYAMHWVRQVPGQGLEWVAGLSWNSDTIGYADSVKGRFTISRDNAKNSLYLQMKSLKAEDTALYYCTKDFYHSLNNWNYYYFDYWGQGTLVTVSS
VH 2: EVQLVESGGGVVQPGGSLRLSCAASGFSLDDYAMHWVRQTPGKGLEWVSLISGDGSRTSYADSVKGRFTISRDNSKNSLYLKMNSLRTEDTALYYCTKDPHNSNWFDPWGQGTLVTVSS
VL: not shown
notes: also called bsC1q × IsdB; bs hC1q × IsdB
[9]
  Kd: 2.3 nM
  koff: 0.00105 s⁻¹
  kon: 457000 M⁻¹ s⁻¹
  t1/2: 11 min
[10]
  Kd: 3670 nM
  T1/2: 0.12 min
  koff: 0.0964 s⁻¹
  kon: 26200 M⁻¹ s⁻¹
[11]
  CDC EC50 (H1N1-infected MDCK cells): > 889 nM
  Maximum percent specific lysis (CDC of H1N1-infected MDCK cells): -6.15%
[12]
  Kd: 666 nM
  koff: 0.0782 s⁻¹
  kon: 117000 M⁻¹ s⁻¹
  t1/2: 0.15 min
[13]
  Kd: 2.36 nM
  koff: 0.00027 s⁻¹
  kon: 115000 M⁻¹ s⁻¹
  t1/2: 42.8 min
[14]
  C1q deposition on S. aureus (plate-based, anti-C1q detection), EC50: 0.127 nM
[15]
  Kd: 402 nM
  koff: 0.0366 s⁻¹
  kon: 91100 M⁻¹ s⁻¹
  t1/2: 0.32 min
[16]
  Kd: 3.43 nM
  koff: 0.000557 s⁻¹
  kon: 163000 M⁻¹ s⁻¹
  t1/2: 20.7 min
[17]
  Kd: 3.23 nM
  T1/2: 3.5 min
  koff: 0.00334 s⁻¹
  kon: 1.03e+06 M⁻¹ s⁻¹
[18]
  Kd: 7.52 nM
  T1/2: 1.8 min
  koff: 0.00657 s⁻¹
  kon: 874000 M⁻¹ s⁻¹
[19]
  Kd: 3.43 nM
  T1/2: 21 min
  koff: 0.000557 s⁻¹
  kon: 163000 M⁻¹ s⁻¹
[20]
  Maximum binding (RLUs): 2500 RLU
[21]
  koff: 0.00502 s⁻¹
  kon: 3.22e+06 M⁻¹ s⁻¹
  t1/2: 2.3 min
[22]
  Kd: 0.842 nM
  koff: 0.00211 s⁻¹
  kon: 2.51e+06 M⁻¹ s⁻¹
  t1/2: 5.5 min
[23]
  Kd: 1.56 nM
  T1/2: 2.3 min
  koff: 0.00502 s⁻¹
  kon: 3.22e+06 M⁻¹ s⁻¹
[24]
  Kd: 7.52 nM
  koff: 0.00657 s⁻¹
  kon: 874000 M⁻¹ s⁻¹
  t½: 1.8 min
[25]
  binding result: no binding
[26]
  EC50: 0.19 nM
